The source of these data is the DeepSol protein solubility set.

This series in a line: soluble on expression in E. coli; label from the status in PepcDB or PDB records.
On to “MAHHHHHHMAYALVEADSISFSLKPADLCADSPLEYGSPREKETNGLSPCGDKGPLTPFGVRPHLFSKGWWRLVVLSSVPLDSYRAIPKDTWSFTEKGQLKQGSNALLFSYACTVSDRTDITLLLDVHSQRPIPFRIKIFRAGVEGPPVFVSEECVNHLFVPHVAVDVPEKVKNVAYIIEAWLDKEKVEEWERMRRLSQELKFLLAAEAARVKAEMKQQKELQEYHEDPRAFKERLLNQEMGPVENLVPTPLREQMSVSSKKGRPSVDKRRTLSNAAPSRQTIVRTSVTPSTPASAVAVHIDSIDPELVVTYDLRLYFSAKTDVKCVATGKDPLTTMRGLWVHQLILFLGKPLRSPVVAREGSVGSRRILLHLLKNYTRRII”, for which the “soluble on expression in E. coli” value is “not soluble”.
The value for “MSLKQKILIVEDSLTIRRMLIQAIAQQTGLEIDAFDTLEGARHCRGEEYVVALVDLTLPDAPSGEAVKVLLERGLPVVILTADISEEKRAAWLEAGVLDYVMKDSRHSLQYAVSLVHRLYLNQRIEVLVVDDSRTSRHRTMAQLRKQLLQVHEASHAREALAQLEQNPAIRLVLVDYYMPEIDGISLVRMLRERYSKQQLAIIGISVSDKRGLSARYLKQGANDFLNQPFEPEELQCRVSHNLEALEQFNSIQESANRDYLTGLYNRRYWFNEGQKWFEEHQRQETPLALCVLDVDHFKQVNDHWGHAIGDQLLCHLTRLLTQFFPDAMIARFGGEEFALMVPHCTVPVLLKRLEGLRQQMRQQPLSRETPLFVRASFGVIKVGRGSMDEALSEADRLLYQAKNTGRDKIVSQDSSEGHHHHHH” was “soluble”.
The value for “PISNIFAGLLFYVLSDYVTEDTGIRITRAELEKTIVEHGGKLIYNVILKRHSIGDVRLISCKTTTECKALIDRGYDILHPNWVLDCIAYKRLILIEPNYCFNVSQKMRAVAEKRVDCLGDSFENDISETKLSSLYKSQLSLPPMGELEIDSEVRRFPLFLFSNRIAYVPRRKISTEDDIIEMKIKLFGGKITDQQSLCNLIIIPYTDPILRKDCMNEVHEKIKEQIKASDTIPKIARVVAPEWVDHSINENCQVPEEDFPVVNY” was “soluble”.
The result for “MPRYTESEWLTDFIIDALDSGRFWGVGWLDEQKRIFTVPGRNRRERMPEGFDDFYEAFLEERRRHGLPEIPETETGLGCFGRLLRTANRARQERPFTIYKGKMKLNRWIMTPRPYKGCEGCLVYLTQEPAMKNMLKALFGIYPHDDKHREKALRRSLRKKAQRREAARKQAAAVATPTTSSAAEVSSRSQSEDTESSDSENELWVGAQGFVGRDMHSLFFEEPEPSGFGSSGQSSSLLAPDSPRPSTSQVQGPLHVHTPTDLCLPTGGLPSPVIFPHETQGLLAPPAGQSQTPFSPEGPVPSHVSGLDDCLPMVDHIEGCLLDLLSDVGQELPDLGDLGELLCETASPQGPMQSEGGEEGSTESVSVLPATHPLESSAPGASVMGSGQELPDLGDLSELLCETASPQGPMQSEGGEEGSTESVSVLPATHPLESSAPGASVMGSSFQASDNVDDFIDCIPPLCRDDRDVEDQEKADQTFYWYGSDMRPKVLTATQSVAAYLSKKQAIYKVGDKLVPLVVEVYYFGEKVKTHFDLTGGIVICSQVPEASPEHICQTVPPYKCLLPRTAHCSVDANRTLEQTLDRFSMGVVAIGTNMGIFLKGLLEYPAYFVGNASRRRIGKCRPLSHRHEIQQAFDVERHNREPEGSRYASLFLGRRPSPEYDSDHYPVILHIYLAPFYHRD” reads “not soluble”; that for “MGSDKIHHHHHHMSEYLEIPELNKAFPFRSFVNEGEVLVYPHWHKEIEIIYALKGSLNLGVNDMPIQLNEGEIQIINGGDVHYFLASPNSERIVIQFDLSLFQEEMQMDGQNGTLREMLTEMAHLSREWPEETTAKVQSLIRNIHLESSNDSPGKHYILKADLLAIIGLIYREIPQKKTQPDSVISEKAVLKSKETLQKLDQIFSYVEKHYQEPVSLQEVADYTGFSTYYFTKFFKRNTGMTFVTFLNDYRLNKAKWMLLNEAFPVTEVAELAGFSSVKTFHHAFKRAMGVAPLKYRKTIYGNN”, “not soluble”; that for “MGTLLATRLKNRRKELKMSQRELAEGICKQGQISRLESGEFTPGADFLHALAKKLKVSMDYFFDEQVVEEVNELSEFKKLAQTFITNRNYESLKYIYELENVKAHRLSLADKFYMEWIKSLIDFYFYGQKEEAITRLENMLPQLNVSDLNYLQVSNTLFNFYYDIEDLERFNEIRDKLEHQVNQLNLNTIEELELSIKFNYNVCRYLWLQKNIEEAITKITATIKQCKEYRTTYLLADLYLLMGSVSENFSSKSSVKEYFETAHFLYKLEENMSMALKVEHYFADITE”, “not soluble”.
On to “MRFFNKYKLFLDCAYKHLNIVLLDFKTNTVVDQLTIPVQQNLTELAVYHLEKLLKKNKVRNNTVRQFYVTTGPGSFTGQRVGAIIAKTWCTVNPNCQLFALNSLRLQIPYGCGISKISAGNEKNYCGLFTETTSEIALLAKPDFVKLCKANTELPVYENFENIDSIEELFLNNIERFELVENPQNLELLYLKDPVN”, for which the “soluble on expression in E. coli” value is listed as “soluble”.
For “MSLNVQGNLFRPLTLPNGLSLENRFVLSPMVTNSSTSEGFVTDDDIAYAVRRAKSAPLQITGAAYITEYGQLFEYGFSVSKDEDIPGLTKLAKAMKSKGAKAVLQLTHAGRFSSHTLARHGYVYGPSPMQLQSPYPHQVKELTHKDILRIIDEYVQATRRAIQAGFDGVEISSAQRLLIQTFFSTFSNQRKDEYGPQTLTNRCRLGLEVFKAVQKVIREEAESDFILGFRATPEETRGSQIGYSIEEFMEFLEKILAIAQVDYLAIASWGHDVFRNTIRSEGVYKGQLVNQVIFEHFGDRVPIMATGGINSASKVFEALQHAHMIGASTPLVVDPEFLQKIKAKCSDQINLRIKVSDLEGLAIPKASFKDIVPLMDYGESEGHHHHHH”, the “soluble on expression in E. coli” value was “soluble”.
For “MGSDKIHHHHHHMVKLPPLSLYIHIPWCVQKCPYCDFNSHALKGEVPHDDYVQHLLNDLDNDVAYAQGREVKTIFIGGGTPSLLSGPAMQTLLDGVRARLPLAADAEITMEANPGTVEADRFVDYQRAGVNRISIGVQSFSEEKLKRLGRIHGPQEAKRAAKLASGLGLRSFNLDLMHGLPDQSLEEALGDLRQAIELNPPHLSWYQLTIEPNTLFGSRPPVLPDDDALWDIFEQGHQLLTAAGYQQYETSAYAKPGYQCQHNLNYWRFGDYIGIGCGAHGKVTFPDGRILRTTKTRHPRGFMQGRYLESQRDVEATDKPFEFFMNRFRLLEAAPRVEFIAYTGLCEDVIRPQLDEAIAQGYLTECADYWQITEHGKLFLNSLLELFLAE”, the “soluble on expression in E. coli” value was “not soluble”.
Regarding “MGHHHHHHHHMTTSILDTYPQICSPNALPGTPGNLTKEQEEALLQFRSILLEKNYKERLDDSTLLRFLRARKFDINASVEMFVETERWREEYGANTIIEDYENNKEAEDKERIKLAKMYPQYYHHVDKDGRPLYFEELGGINLKKMYKITTEKQMLRNLVKEYELFATYRVPACSRRAGYLIETSCTVLDLKGISLSNAYHVLSYIKDVADISQNYYPERMGKFYIIHSPFGFSTMFKMVKPFLDPVTVSKIFILGSSYKKELLKQIPIENLPVKYGGTSVLHNPNDKFYYSDIGPWRDPRYIGPEGEIPNIFGKFTVTS”, the “soluble on expression in E. coli” value was “soluble”.
For the sequence “MSLTRGEARRPPQEFDRVLSSMCTTPHPAAREAAQAFLATNPGDPETYPAVAERERDAVALLGEIVGLSSPHGYIAAGGTEANLQAVRAARNRADADAVNVVAPASAHFSFQKAADVLGVELRLAPTDGDHRADVAAVADLVDGDTAVVVGVAGTTEYGRVDPIPALADIAAGVDANLHVDAAWGGFVLPFTDHDWSFADAPVNTMAIDPHKMGQAPVPAGGFLARDPETLDALAIETPYLESDTQPTLGGTRSGAGVAGALASLRALWPDGYREQYERTQGNAEYLAAELAARGYDVVDPELPLVAADMPDAEFQALREEGWRISRTASDALRVVCMPHVTREMLAAFLDDVDALAEGHHHHHH”, the “soluble on expression in E. coli” value was “not soluble”.
The result for “GMDDLTNLAARLRLLEDREEIRELIARYGPLADSGDAEALSELWVEDGEYAVVGFATAKGRAAIAALIDGQTHRALMADGCAHFLGPATVTVEGDTATARCHSVVFRCVSGTFGSHRVSANRWTFRRTPAGWRAVRRENALLDGSAAARALLQFR” reads “soluble”; that for “MGHHHHHHSHQHLEVRDEVAEKCQKLFLDFLEEFQSSDGEIKYLQLAEELIRPERNTLVVSFVDLEQFNQQLSTTIQEEFYRVYPYLCRALKTFVKDRKEIPLAKDFYVAFQDLPTRHKIRELTSSRIGLLTRISGQVVRTHPVHPELVSGTFLCLDCQTVIRDVEQQFKYTQPNICRNPVCANRRRFLLDTNKSRFVDFQKVRIQETQAELPRGSIPRSLEVILRAEAVESAQAGDKCDFTGTLIVVPDVSKLSTPGARAETNSRVSGVDGYETEGIRGL”, “not soluble”; that for “MKKLIIIPAYNESSNIVNTIRTIESDAPDFDYIIIDDCSTDNTLAICQKQGFNVISLPINLGIGGAVQTGYRYAQRCGYDVAVQVDGDGQHNPCYLEKMVEVLVQSSVNMVIGSRFITKEGFQSSFARRIGIKYFTWLIALLTGKKITDATSGLRLIDRSLIERFANHYPDDYPEPETVVDVLVSHFKVKEIPVVMNERQGGVSSISLTKSVYYMIKVTLAILVVRLKGNR”, “not soluble”.
The result for “RLKALRKEQGKALKKDKKLAEPKARVYVLDFDGDIKASATESMRHEITALLTLATDKDEVVLRLESGGGMVHSYGLASSQLARIRQAGIPLTVCIDKVAASGGYMMACIGNKIISAPFAILGSIGVVAQLPNVNRLLKKHDIDFEVLTAGEYKRTLTVFGENTEKGREKFQQDLDITHDLFKNFVASYRPQLSIDEVATGEVWLGMAAVDKLLVDELKTSDE” reads “not soluble”; that for “GAERTIQLPKPDMNRAGLLMKALSERHSTREYASKALSNTDLSDLLWAANGINRSSEGKRTAPSAMNRQDIDIYVVLPQGTYLYDAKGHKLNLISEGDHRSAVAGGQAFVNNAPVSLVLVSDLSKLGDAKSNHVQLMGAMDAGIVSQNISLFCSAARLATVPRASMDLVRLKAALKLKDTQMPMMNHPVGYFK”, “soluble”.
The result for “MSLYKQTSIFDAKFDKNRPLADRMRPRTLDEFVGQEHILGKGKALRELIEKDSITSMILWGPPGVGKTTLAMIIANMTNSKFVNFSAVLSGIKEIKEIMAQAERDAMYGQRTVVFIDEIHRFNKAQQDAFLPHVEKGNIILIGATTENPSFEVNSALLSRSKVFMMKPLDVKDIMIILKRALKDEERGLGLYNVEIDEEKLEKIALFSNGDARVALNTLEMAVMAANVVNGKRVVTDEILSDVMQKKALLYDKAGEEHYNLISAFHKSLRNSDWDAALYWMARMLEAGEDPLYIARRMIRFASEDVGLADPQALSVAIAAYEASHYIGMPECSVNLAQAAVYLALAPKSNALYVAYNRVKKDAEETFAEPVPMHLRNAPTKLMKELGYGEGYKYAHDFEEKVTDMECLPENLKGRRYYIPTDSGFEKKLKERMEEILKLKGEGHHHHHH” reads “soluble”; that for “MGSDKIHHHHHHMNWKVTIKNTIEELAKLKKDVKIENEGDPEHELSDAEDKVMKIELEEEFKPTMYSLYEFKSLNDKRIASIDSSSRYLRDFSVNTCLIGLSVYSNREGFIDGPFTVDIPYIGISSYREILESLKIDDINVRYKNVVNYYYVNEPNNEYKIDDIADELRLEAENVGLKRVIQNHDIVIIDGPIYPTPLELTEEINLETEARRKHRLAYAKLVNERIELLNNNVIGVVKRLENSKKLWRVKEINETIGNVKRMKDVTIIELIDERLCRKNYEYVCTIGPFKIEYALEVKDEDGRNVIEKVPTKYAYYVIIRKKYFPPTFLRIESTNKNLDISPVLSRLTERLMPTYIEIVDRRSKRISASLFLYAYEIASNYLNIIHDDKMGYLSVISQFTSE”, “not soluble”.
